[ ]: non-standard residue; d: D form. 8x polyethylene glycol‑amino = O-(8x polyethylene glycol-amino)-tyrosine, SITE 45; 9x polyethylene glycol‑azido = O-(9x polyethylene glycol-azido)-tyrosine, SITE 42; Ygp = O-(8x polyethylene glycol-amino)-tyrosine (Tyr, amino-capped PEG8); Yn3 = O-(9x polyethylene glycol-azido)-tyrosine (Tyr, azide-capped PEG9); hSer = N[C@@H](CCO)C(=O)O; Nle = CCCC[C@H](N)C(=O)O
Biological target: T1, IL-2 receptor βγ complex (human, UniProt P14784 27-551; P31785 23-369)
T1 sequence (looked up) 1: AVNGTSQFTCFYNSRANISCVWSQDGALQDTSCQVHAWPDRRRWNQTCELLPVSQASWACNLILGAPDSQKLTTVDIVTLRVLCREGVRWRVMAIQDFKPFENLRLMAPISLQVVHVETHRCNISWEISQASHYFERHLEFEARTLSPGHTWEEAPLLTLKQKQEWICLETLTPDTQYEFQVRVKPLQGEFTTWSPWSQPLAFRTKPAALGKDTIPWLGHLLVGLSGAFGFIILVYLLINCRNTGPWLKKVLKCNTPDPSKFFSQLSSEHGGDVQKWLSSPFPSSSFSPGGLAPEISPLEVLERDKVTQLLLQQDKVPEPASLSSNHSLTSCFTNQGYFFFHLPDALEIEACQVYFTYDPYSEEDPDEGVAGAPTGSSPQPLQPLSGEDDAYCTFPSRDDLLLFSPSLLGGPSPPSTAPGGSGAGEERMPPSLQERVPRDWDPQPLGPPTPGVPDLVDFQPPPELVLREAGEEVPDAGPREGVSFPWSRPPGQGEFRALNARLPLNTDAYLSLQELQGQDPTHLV
T1 sequence (looked up) 2: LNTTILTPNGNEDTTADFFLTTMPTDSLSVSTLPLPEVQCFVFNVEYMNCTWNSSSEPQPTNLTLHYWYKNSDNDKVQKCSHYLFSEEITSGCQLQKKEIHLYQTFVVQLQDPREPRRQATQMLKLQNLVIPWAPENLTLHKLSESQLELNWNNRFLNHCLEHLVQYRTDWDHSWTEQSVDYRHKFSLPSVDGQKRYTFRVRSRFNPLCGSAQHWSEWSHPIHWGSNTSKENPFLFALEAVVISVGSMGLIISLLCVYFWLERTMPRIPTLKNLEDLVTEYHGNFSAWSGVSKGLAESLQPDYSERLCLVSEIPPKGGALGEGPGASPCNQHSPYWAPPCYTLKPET
Experiment: cell-based or functional assay

Binder	Average EC50, pSTAT5 Assay in NK cells
CMP-311, Matriptase cleaved molecule (ligand, also: m77 after matriptase cleavage: Lys23 side-chain branch (cleavable peptide) cut, remnant not given here) APTSSSTKKTQLQLEHLLLDLQKILNGINNYKNPKLTR[Nle]L[hSer][Yn3]KF[Ygp][Nle]PKKATELKHLQCLEEELKPLEEVL[hSer]LAQSKNFHLRPRDLISNINVIVLELKGSETTF[hSer]CEYADETATIVEFLNRWITFSQSIISTLT	0.512 nM
CMP-315, MMP2 cleaved molecule (ligand, also: K23 side chain attached to another sequence, m89 after MMP2 cleavage, product not given here as a sequence) APTSSSTKKTQLQLEHLLLDLQKILNGINNYKNPKLTR[Nle]L[hSer]Y(9x polyethylene glycol‑azido)KFY(8x polyethylene glycol‑amino)[Nle]PKKATELKHLQCLEEELKPLEEVL[hSer]LAQSKNFHLRPRDLISNINVIVLELKGSETTF[hSer]CEYADETATIVEFLNRWITFSQSIISTLT	0.369 nM
CMP-310, Matriptase cleaved molecule (ligand, also: m73 after matriptase cleavage: Lys23 side-chain branch (cleavable peptide) cut, remnant not given here) APTSSSTKKTQLQLEHLLLDLQKILNGINNYKNPKLTR[Nle]L[hSer][Yn3]KF[Ygp][Nle]PKKATELKHLQCLEEELKPLEEVL[hSer]LAQSKNFHLRPRDLISNINVIVLELKGSETTF[hSer]CEYADETATIVEFLNRWITFSQSIISTLT	6.9 nM
CMP-310, uPa cleaved molecule (ligand, also: m73 after uPa cleavage: Lys23 side-chain branch (cleavable peptide) cut, remnant not given here) APTSSSTKKTQLQLEHLLLDLQKILNGINNYKNPKLTR[Nle]L[hSer][Yn3]KF[Ygp][Nle]PKKATELKHLQCLEEELKPLEEVL[hSer]LAQSKNFHLRPRDLISNINVIVLELKGSETTF[hSer]CEYADETATIVEFLNRWITFSQSIISTLT	6.79 nM
CMP-314, uPa cleaved molecule (ligand, also: uPa cleavage product, not given here as a sequence, Lys23 side-chain attachment remnant unknown) APTSSSTKKTQLQLEHLLLDLQKILNGINNYKNPKLTR[Nle]L[hSer]Y(9x polyethylene glycol‑azido)KFY(8x polyethylene glycol‑amino)[Nle]PKKATELKHLQCLEEELKPLEEVL[hSer]LAQSKNFHLRPRDLISNINVIVLELKGSETTF[hSer]CEYADETATIVEFLNRWITFSQSIISTLT	0.065 nM
CMP-311, uPa cleaved molecule (ligand, also: m77 after uPa cleavage: Lys23 side-chain branch (cleavable peptide) cut, remnant not given here) APTSSSTKKTQLQLEHLLLDLQKILNGINNYKNPKLTR[Nle]L[hSer][Yn3]KF[Ygp][Nle]PKKATELKHLQCLEEELKPLEEVL[hSer]LAQSKNFHLRPRDLISNINVIVLELKGSETTF[hSer]CEYADETATIVEFLNRWITFSQSIISTLT	0.548 nM
CMP-311, MMP2 cleaved molecule (ligand, also: m77 after MMP2 cleavage: Lys23 side-chain branch (cleavable peptide) cut, remnant not given here) APTSSSTKKTQLQLEHLLLDLQKILNGINNYKNPKLTR[Nle]L[hSer][Yn3]KF[Ygp][Nle]PKKATELKHLQCLEEELKPLEEVL[hSer]LAQSKNFHLRPRDLISNINVIVLELKGSETTF[hSer]CEYADETATIVEFLNRWITFSQSIISTLT	0.073 nM
CMP-313, MMP2 cleaved molecule (ligand, also: m81 after MMP2 cleavage: Lys23 side-chain branch (cleavable peptide) cut, remnant not given here) APTSSSTKKTQLQLEHLLLDLQKILNGINNYKNPKLTR[Nle]L[hSer][Yn3]KF[Ygp][Nle]PKKATELKHLQCLEEELKPLEEVL[hSer]LAQSKNFHLRPRDLISNINVIVLELKGSETTF[hSer]CEYADETATIVEFLNRWITFSQSIISTLT	0.035 nM
CMP-315, uPa cleaved molecule (ligand, also: uPa cleavage product, not given here as a sequence, Lys23 side-chain attachment remnant unknown) APTSSSTKKTQLQLEHLLLDLQKILNGINNYKNPKLTR[Nle]L[hSer]Y(9x polyethylene glycol‑azido)KFY(8x polyethylene glycol‑amino)[Nle]PKKATELKHLQCLEEELKPLEEVL[hSer]LAQSKNFHLRPRDLISNINVIVLELKGSETTF[hSer]CEYADETATIVEFLNRWITFSQSIISTLT	0.335 nM
CMP-313, uPa cleaved molecule (ligand, also: K23 side chain attached to another sequence, m81 after uPa cleavage, product not given here as a sequence) APTSSSTKKTQLQLEHLLLDLQKILNGINNYKNPKLTR[Nle]L[hSer]Y(9x polyethylene glycol‑azido)KFY(8x polyethylene glycol‑amino)[Nle]PKKATELKHLQCLEEELKPLEEVL[hSer]LAQSKNFHLRPRDLISNINVIVLELKGSETTF[hSer]CEYADETATIVEFLNRWITFSQSIISTLT	0.081 nM

Further lines, results first:

Average EC50, pSTAT5 Assay in NK cells	Binder
0.387 nM	CMP-315, Matriptase cleaved molecule (ligand, also: matriptase cleavage product, not given here as a sequence, Lys23 side-chain attachment remnant unknown) APTSSSTKKTQLQLEHLLLDLQKILNGINNYKNPKLTR[Nle]L[hSer]Y(9x polyethylene glycol‑azido)KFY(8x polyethylene glycol‑amino)[Nle]PKKATELKHLQCLEEELKPLEEVL[hSer]LAQSKNFHLRPRDLISNINVIVLELKGSETTF[hSer]CEYADETATIVEFLNRWITFSQSIISTLT
0.04 nM	CMP-314, MMP2 cleaved molecule (ligand, also: K23 side chain attached to another sequence, m85 after MMP2 cleavage, product not given here as a sequence) APTSSSTKKTQLQLEHLLLDLQKILNGINNYKNPKLTR[Nle]L[hSer]Y(9x polyethylene glycol‑azido)KFY(8x polyethylene glycol‑amino)[Nle]PKKATELKHLQCLEEELKPLEEVL[hSer]LAQSKNFHLRPRDLISNINVIVLELKGSETTF[hSer]CEYADETATIVEFLNRWITFSQSIISTLT
0.117 nM	CMP-314, Matriptase cleaved molecule (ligand, also: matriptase cleavage product, not given here as a sequence, Lys23 side-chain attachment remnant unknown) APTSSSTKKTQLQLEHLLLDLQKILNGINNYKNPKLTR[Nle]L[hSer]Y(9x polyethylene glycol‑azido)KFY(8x polyethylene glycol‑amino)[Nle]PKKATELKHLQCLEEELKPLEEVL[hSer]LAQSKNFHLRPRDLISNINVIVLELKGSETTF[hSer]CEYADETATIVEFLNRWITFSQSIISTLT
4.07 nM	CMP-310, MMP2 cleaved molecule (ligand, also: m73 after MMP2 cleavage: Lys23 side-chain branch (cleavable peptide) cut, remnant not given here) APTSSSTKKTQLQLEHLLLDLQKILNGINNYKNPKLTR[Nle]L[hSer][Yn3]KF[Ygp][Nle]PKKATELKHLQCLEEELKPLEEVL[hSer]LAQSKNFHLRPRDLISNINVIVLELKGSETTF[hSer]CEYADETATIVEFLNRWITFSQSIISTLT
0.714 nM	CMP-313, Matriptase cleaved molecule (ligand, also: m81 after matriptase cleavage: Lys23 side-chain branch (cleavable peptide) cut, remnant not given here) APTSSSTKKTQLQLEHLLLDLQKILNGINNYKNPKLTR[Nle]L[hSer][Yn3]KF[Ygp][Nle]PKKATELKHLQCLEEELKPLEEVL[hSer]LAQSKNFHLRPRDLISNINVIVLELKGSETTF[hSer]CEYADETATIVEFLNRWITFSQSIISTLT

Reference: patent publication US20240376170A1 (BRIGHT PEAK THERAPEUTICS, published 2024)
